T1: AnkG ANK repeats (residues 38-855, R1-24) (UniProt O70511 38-855)
T1 chain: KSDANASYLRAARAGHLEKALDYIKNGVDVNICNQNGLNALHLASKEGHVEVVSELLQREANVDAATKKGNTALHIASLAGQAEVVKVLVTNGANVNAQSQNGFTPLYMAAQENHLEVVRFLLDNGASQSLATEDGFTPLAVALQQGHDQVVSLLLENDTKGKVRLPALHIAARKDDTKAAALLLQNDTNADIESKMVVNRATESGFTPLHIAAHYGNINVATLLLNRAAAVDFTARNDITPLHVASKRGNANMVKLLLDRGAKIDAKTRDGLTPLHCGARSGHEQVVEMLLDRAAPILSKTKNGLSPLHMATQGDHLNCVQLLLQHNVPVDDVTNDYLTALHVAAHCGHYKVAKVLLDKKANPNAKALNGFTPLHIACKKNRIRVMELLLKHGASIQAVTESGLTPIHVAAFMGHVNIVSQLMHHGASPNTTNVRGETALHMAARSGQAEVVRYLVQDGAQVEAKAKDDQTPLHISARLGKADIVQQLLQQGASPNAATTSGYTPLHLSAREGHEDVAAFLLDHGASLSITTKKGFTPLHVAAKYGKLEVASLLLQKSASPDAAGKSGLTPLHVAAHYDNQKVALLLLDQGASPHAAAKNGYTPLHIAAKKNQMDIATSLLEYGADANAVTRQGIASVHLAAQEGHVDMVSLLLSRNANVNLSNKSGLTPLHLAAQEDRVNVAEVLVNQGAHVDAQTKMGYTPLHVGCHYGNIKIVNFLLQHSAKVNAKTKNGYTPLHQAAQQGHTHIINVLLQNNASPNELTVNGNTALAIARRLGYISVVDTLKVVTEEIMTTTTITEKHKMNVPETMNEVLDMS

T2: AnkG ANK repeats (residues 38-855, R1-24) (UniProt O70511 38-855)
T2 construct: Ankyrin-G (AnkG), ANK repeats R1-24, residues 38-855; In human Q12955 the same residues seem to stand 8 lower (I277 here = I269 there); Cloned into a modified pET32a vector; the tag is said to be removed only for the crystallisation proteins; also called AnkG R1-24; Ankyrin-G ankyrin repeats; source: E. coli BL21 (DE3), purified (Ni-NTA, size-exclusion chromatography)
T2 sequence (looked up): T1 chain

B1: Nfasc 1198 to 1214 E1204A (domain or fragment, UniProt P97685 1198-1214, looked up)
chain: GEGQFNADGSFIGQYTV
notes: source: E. coli BL21 (DE3), purified (Ni-NTA, size-exclusion chromatography)
B2: Nfasc 1198 to 1214 F1202Q (domain or fragment, UniProt P97685 1198-1214, looked up)
chain: GEGQQNEDGSFIGQYTV
notes: as for B1
B3: Nfasc 1198 to 1214 Y1212E (domain or fragment, UniProt P97685 1198-1214, looked up)
chain: GEGQFNEDGSFIGQETV
notes: also called Y1212E phosphorylation mimic variant; source: E. coli BL21 (DE3), purified (Ni-NTA, size-exclusion chromatography)
B4: CHL1 (domain or fragment)
chain: IEIPSSVQQVPTIIKQSKVQVAFPFDEYFQIECEAKGNPEPTFSWTKDGNPFYFTDHRIIPSNNSGTFRIPNEGHISHFQGKYRCFASNKLGIAMSEEIEFIVPSVPKFPKEKIDPLEVEEGDPIVLPCNPPKGLPPLHIYWMNIELEHIEQDERVYMSQKGDLYFANVEEKDSRNDYCCFAAFPRLRTIVQKMPMKLTVNSSNSIKQRKPKLLLPPTESGSESSITILKGEILLLECFAEGLPTPQVDWNKIGGDLPKGRETKENYGKTLKIENVSYQDKGNYRCTASNFLGTATHDFHVIVEEPPRWTKKPQSAVYSTGSNGILLCEAEGEPQPTIKWRVNGSPVDNHPFAGDVVFPREISFTNLQPNHTAVYQCEASNVHGTILANANIDVVDVRPLIQTKDGENYATVVGYSAFLHCEFFASPEAVVSWQKVEEVKPLEGRRYHIYENGTLQINRTTEEDAGSYSCWVENAIGKTAVTANLDIRNATKLRVSPKNPRIPKLHMLELHCESKCDSHLKHSLKLSWSKDGEAFEINGTEDGRIIIDGANLTISNVTLEDQGIYCCSAHTALDSAADITQVTVLDVPDPPENLHLSERQNRSVRLTWEAGADHNSNISEYIVEFEGNKEEPGRWEELTRVQGKKTTVILPLAPFVRYQFRVIAVNEVGRSQPSQPSDHHETPPAAPDRNPQNIRVQASQPKEMIIKWEPLKSMEQNGPGLEYRVTWKPQGAPVEWEEETVTNHTLRVMTPAVYAPYDVKVQAINQLGSGPDPQSVTLYSGEDYPDTAPVIHGVDVINSTLVKVTWSTVPKDRVHGRLKGYQINWWKTKSLLDGRTHPKEVNILRFSGQRNSGMVPSLDAFSEFHLTVLAYNSKGAGPESEPYIFQTPEGVPEQPTFLKVIKVDKDTATLSWGLPKKLNGNLTGYLLQYQIINDTYEIGELNDINITTPSKPSWHLSNLNATTKYKFYLRACTSQGCGKPITEESSTLGEGSKGIGKISGVNLTQKTHPIEVFEPGAEHIVRLMTKNWGDNDSIFQDVIETRGREYAGLYDDISTQGWFIGLMCAIALLTLLLLTVCFVKRNRGGKYSVKEKEDLHPDPEIQSVKDETFGEYSDSDEKPLKGSLRSLNRDMQPTESADSLVEYGEGDHGLFSEDGSFIGAYAGSKEKGSVESNGSSTATFPLRA
B5: NrCAM (domain or fragment)
chain: RRNKGGKYPVKEKEDAHADPEIQPMKEDDGTFGEYSDAEDHKPLKKGSRTPSDRTVKKEDSDDSLVDYGEGVNGQFNEDGSFIGQYSGKKEKEPAEGNESSEAPSPVNAMNSFV
B6: full-length Nfasc cytoplasmic tail (residues 1132-1240) (domain or fragment)
chain: KRSRGGKYPVREKKDVPLGPEDPKEEDGSFDYSDEDNKPLQGSQTSLDGTIKQQESDDSLVDYGEGGEGQFNEDGSFIGQYTVRKDKEETEGNESSEATSPVNAIYSLA

Molecular target: T1, AnkG ANK repeats (residues 38-855, …)
Experiment: ITC
Conditions: not given

Binder	Kd
GEGQFNEAGSFIGQYTV (domain or fragment) [Nfasc 1198 to 1214 D1205A]	1.3 µM
GEGQFNEDGSQIGQYTV (domain or fragment) [Nfasc 1198 to 1214 F1208Q]	1.4 µM
GEGQFNEDGAFIGQYTV [Nfasc 1198-1214 S1207A]	1.2 µM
B1	9.2 µM
B2	7.1 µM
B3	3.2 µM
GEGQFNEDGSFIGQYAV [Nfasc 1198-1214 T1213A]	0.46 µM
GEGQFNEDGSFQGQYTV (domain or fragment) [Nfasc 1198 to 1214 I1209Q]	1 µM
GEGQFNEKGSFIGQYTV (domain or fragment) [Nfasc 1198 to 1214 D1205K]	7.7 µM
GEGQFAEDGSFIGQYTV [Nfasc 1198-1214 N1203A]	0.26 µM

Molecular target: T1, AnkG ANK repeats (residues 38-855, …)
Experiment: ITC
Conditions: not given
Remark: another data set of the same source

Binder	Kd
B4	0.9 µM
SDDSLADYGGSVDVQFNEDGSFIGQYSG (domain or fragment) [L1CAM (construct of the ITC assay)]	1.1 µM
B5	0.7 µM

Molecular target: T1, AnkG ANK repeats (residues 38-855, …)
Experiment: ITC
Conditions: not given
Remark: another data set of the same source

Binder	Kd
B6	0.93 µM
GEGQFNEDGSFIGQYTV (domain or fragment) [Nfasc 1198 to 1214 WT]	0.34 µM

Molecular target: T2, AnkG ANK repeats (residues 38-855, …)
Experiment: ITC; VP-ITC at 25 °C; 50 mM Tris, 100 mM NaCl, 1 mM EDTA, 1 mM DTT, pH 7.8; Nfasc proteins (200 μM) in the syringe, AnkG proteins (20 μM) in the cell; one-site binding model
Conditions: both partners purified

Binder	fold decrease in binding affinity against Nfasc 1198 to 1214 WT	fold decrease in binding against Nfasc 1198 to 1214 WT
B1	~27 fold	
B2		> 20 fold
B3		~9 fold
